Data from patent publication US20190127480A1 (Regeneron, published 2019).
Changes are numbered by the printed parent chain.

B1: H1H7251P (monovalent 1-arm) (antibody, human IgG1, V domains shown)
VH: EVQLVESGGGLVQPGRSLRLSCAASGFTFADYTMHWVRQGPGTGLEWVSDIGWSGGSLGYADSVKGRFTISRDNAKNSLYLEMNNLRPEDTALYYCVKDKSGYGKFQYGLDVWGQGTTVTVSS
VL: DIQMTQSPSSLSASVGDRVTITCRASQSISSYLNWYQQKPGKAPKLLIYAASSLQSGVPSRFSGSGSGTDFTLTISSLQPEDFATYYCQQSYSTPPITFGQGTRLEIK
notes: Monovalent 1-arm: second Fab removed, only the Fc portion (CH2-CH3) expressed; human IgG1 Fc; tied by numerical identifier; also called H1H7251B
B2: H1H7258P (monovalent 1-arm) (antibody, human IgG1, V domains shown)
VH: QVQLVESGGGLVQPGRSLRLSCAASGFTFDDYTMHWVRQGPGKGLEWVSDIGWNSNTIGYADSVKGRFTISRDNARNSLYLQMNSLRPEDTALYYCVKDKSGYGKFQYGLDVWGQGTTVTVSS
VL: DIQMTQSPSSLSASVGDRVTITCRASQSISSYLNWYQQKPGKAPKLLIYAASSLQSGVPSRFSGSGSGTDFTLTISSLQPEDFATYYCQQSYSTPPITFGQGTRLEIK
notes: Monovalent 1-arm: second Fab removed, only the Fc portion (CH2-CH3) expressed; human IgG1 Fc; tied by numerical identifier; also called H1H7258B
B3: H1H7254P (monovalent 1-arm) (antibody, human IgG1, V domains shown)
VH: B2 VH with Q1E, L11V, T28K, D31G, R76K, Y95F, Q107F, Y108I, T118M
VL: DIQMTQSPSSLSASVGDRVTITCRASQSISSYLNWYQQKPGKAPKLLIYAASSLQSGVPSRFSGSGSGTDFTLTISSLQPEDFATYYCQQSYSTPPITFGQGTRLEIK
notes: Monovalent 1-arm: second Fab removed, only the Fc portion (CH2-CH3) expressed; human IgG1 Fc; tied by numerical identifier; also called H1H7254B
B4: H1H7269P (monovalent 1-arm) (antibody, human IgG1, V domains shown)
VH: QVQLVESGGGLVQPGRSLRLSCAASGFKFDDYTMHWVRQGPGKGLEWVSDISWSGGSIDYTDSVKGRFSISRDNAKNSLYLQMNSLRVEDTALYYCVKDKSGYGKYSYGLDVWGQGTTVTVSS
VL: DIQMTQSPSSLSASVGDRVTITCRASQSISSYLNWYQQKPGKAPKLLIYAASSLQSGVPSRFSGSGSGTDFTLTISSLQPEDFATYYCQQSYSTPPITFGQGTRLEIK
notes: Monovalent 1-arm: second Fab removed, only the Fc portion (CH2-CH3) expressed; human IgG1 Fc; tied by numerical identifier; also called H1H7269B
B5: H1H11797P2 (antibody, human IgG1, V domains shown)
VH: QVQLVESGGGVVQPGRSLRLSCAASGFSFSGYGMHWVRQAPGKGLEWVAVTWYDGSNKYYADSVKGRFTISRDNSKNTLYLQMNSLRAEDTAVYYCARDGNWGGPYWYFDLWGRGTLVTVSS
VL: DIQMTQSPSSLSASVGDSVTITCRASQSINNYLNWYQQKPGKAPKLLIYTASSLLSGVPSRFSGSGSGTDFTLTISGLHPEDFATYFCQQSFSTPPITFGQGTRLDIK
notes: human IgG1
B6: H1H11838P2 (antibody, human IgG1, V domains shown)
VH: QVQLVESGGGVVQPGRSLRLSCAASGFTFSSYGMHWVRQAPGKGLEWVAFMSYDGSNKFYSDSVKGRFTISRDNSRKMLFLQMNNLRAEDTAVYYCARDQYYDFLTDHGVFDYWGQGTLVTVSS
VL: B5 VL
notes: human IgG1
B7: H1H11808P2 (antibody, human IgG1, V domains shown)
VH: QVQLVESGGGVVQPGRSLRLSCAASGFPFNSYGMHWVRQAPGKGLEWVAVISYDGSNRYYADSVKGRFTISRDNSKYTLDLHVSSLTTDDTAVYYCARDRRYGKWEQLYPDYLGQGTLVTVSS
VL: B5 VL
notes: human IgG1
B8: H1H11835P2 (antibody, human IgG1, V domains shown)
VH: EVQLVESGGGLVQSGGSLRLSCEASGFTFSNYWMTWIRQGPGKGLEWVANIKPDGTENYYVDSVKGRFTISRDNARNSLYLQMTSLKAEDTAVYYCGRMIQFVINIWGQGTLVTVSS
VL: B5 VL
notes: human IgG1
B9: H1H11804P2 (antibody, human IgG1, V domains shown)
VH: QVQLVESGGGVVQPGRSLRLSCAASGFTFISYGMHWVRQAPGKGLEWVAVISYDGSNKYYADSVKGRFTISRDNSKNTLFLQMNSLRAEDTAVYYCAKNYDFWNGYVGYYGMDVWGQGTTVTVSS
VL: B5 VL
notes: human IgG1
B10: H1H11800P2 (antibody, human IgG1, V domains shown)
VH: QVQLVESGGGVVQPGRSLRLSCAASGFTFSSYGMHWVRQAPGKGLEWVAVISYAGNNKYYVDSVKGRFTISRDNSKNTLYLQMNSLRAEDTAVYYCAKDPYYDFLTGSDYFDYWGQGTLVTVSS
VL: B5 VL
notes: human IgG1
B11: H1H11792P2 (antibody, human IgG1, V domains shown)
VH: QVQLVESGGGVVQPGRSLRLSCAASGFTFSSYGMHWVRQPPGKGLEWVAIMSYDGSNKYYADSVKGRFTISRDNSKNTLYLQMNSLRVEDTAVYYCAKDQYYDFLTFDYTLDYWGQGTLVTVSS
VL: B5 VL
notes: human IgG1
B12: H1H11805P2 (antibody, human IgG1, V domains shown)
VH: EVQLVESGGGLVQPGGSLRLSCVVSGFTFNNYWMSWVRQAPGKGLEWVANIKKDGSEKYYVDSVKGRFTISRDNAKNSLYLQMNSLRAEDTAVYYCARDIMATIIDWGQGTLVTVSS
VL: B5 VL
notes: human IgG1
B13: H1H11837P2 (antibody, human IgG1, V domains shown)
VH: QVQLVESGGGVVQPGRSLRLSCAASGFTFSSYGMHWVRQAPGKGLEWVTFISYDGNNKYYSDSVKGRFAISRDNSKNTLYLQMNSLRAEDTSVYFCAKDQYYDFLTDFGVFDYWGQGTLVTVSS
VL: B5 VL
notes: human IgG1
B14: H1H11836P2 (antibody, human IgG1, V domains shown)
VH: QVQLVESGGGVVQPGRSLRLSCAASGFTFRSYGMHWVRQAPGKGLEWVAFISYDESNKHQADSVKGRFTISRDNSKNTLYLQMNSLRAEDTAVYFCAKDQYYDFLTAYDTLDYWGQGTLVTVSS
VL: B5 VL
notes: human IgG1
B15: H1H11810P2 (antibody, human IgG1, V domains shown)
VH: QVQLVESGGGVVQPGRSLRLSCAASGFTFSSYGMHWVRQAPGKGLEWVAVISYAGNNKYYADSVKGRFTVSRDNSKKTLYLQMNSLRSEDTAVYYCAKDSYYDFLTDPDVLDIWGQGTMVTVSS
VL: B5 VL
notes: human IgG1; also called PSMA-VH-11810 (its HCVR)
B16: H1H11803P2 (antibody, human IgG1, V domains shown)
VH: QVQLVESGGGVVQPGRSLRLSCAASGFTFSSYGMHWVRQAPGKGLEWVAVIWYDGNNKYYADSVKGRFTISRDNSKKTLYLQMTSLRAEDTAVYYCARDQYYDILTADNTLDYWGQGTLVTVSS
VL: B5 VL
notes: human IgG1
B17: H1H3465P (antibody, human IgG1, V domains shown)
VH: QVQLVESGGGVVQPGRSLRLSCAASGFTFITYGMHWVRQAPGKGLEWVAIIYYDESNKYYADSVKGRFTISRDISKNTLYLQMNGLRAEDTAVYYCARAPRVAVEEDYSYYYGMDVWGQGTTVTVSS
VL: DIQMTQSPSSLSASVGDRVTITCRASQGIRNDLGWYQQKPGRAPKRLIYGASNLQSGVPSRFSGSGSGTEFTLTISSLQPEDFATYYCLQHNSHPYTFGQGTKLEIK
notes: human IgG1; also called PSMA-VH-3465 (its HCVR)
B18: H2M2689N (antibody, mouse IgG2, V domains shown)
VH: QVQLVESGGGVVQPGRSLRLSCAASGFTFSRKGMHWVRQAPVKGLEWVAVISYDGSNKYYADSVKGRFTISRDNSKNTLYLQMNSLTAEDTAVYYCAKEGGHDYGGTFDYWGQGTLVTVSS
VL: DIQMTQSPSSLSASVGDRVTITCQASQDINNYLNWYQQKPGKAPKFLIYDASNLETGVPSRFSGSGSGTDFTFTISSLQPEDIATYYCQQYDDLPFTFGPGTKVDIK

Target: T1, Soluble heterodimeric CD3 protein (hCD3-epsilon/hCD3-delta) with either a human Fc tag (hFcΔAdp/hFc) or a … (human, UniProt P07766 23-126; P04234 22-105)
T1 construct: also called hCD3ε/δ; not shown: Fc tag: human (hFcΔAdp/hFc)
Test: SPR Biacore 25C antigen-capture, 1-arm
Experimental: In the antigen-capture format, heterodimeric CD3 protein was captured using a rabbit anti-mouse Fc or mouse anti-human Fc and the respective antibodies were injected over the captured antigen.
(§1) Kinetic association (kₐ) and dissociation (kd) rate constants were determined by processing and fitting the data to a 1:1 binding model using Scrubber 2.0 curve fitting software. Binding dissociation equilibrium constants (KD) and dissociative half-lives (t₁₁₂) were calculated from the kinetic rate constants as: KD (M)=kd/kₐ; and t_{1/2} (min)=(ln 2/(60*kd). NT=not tested; NB=no binding observed.

T1 sequence (P07766 23-126 limits assumed, stated change not applied, chain 1 of 2): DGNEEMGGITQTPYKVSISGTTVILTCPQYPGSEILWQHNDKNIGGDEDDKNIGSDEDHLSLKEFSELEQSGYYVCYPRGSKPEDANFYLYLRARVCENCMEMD
T1 sequence (P04234 22-105 limits assumed, stated change not applied, chain 2 of 2): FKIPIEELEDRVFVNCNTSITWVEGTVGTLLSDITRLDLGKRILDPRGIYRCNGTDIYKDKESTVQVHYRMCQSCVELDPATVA

| Kd [nM] | T½ [min] | koff [s⁻¹] | kon [M⁻¹ s⁻¹] | Binder |
| --- | --- | --- | --- | --- |
| 2.67 | 10 | 0.00119 | 447000 | B1 |
| 2.18 | 40 | 0.00029 | 133000 | B2 |
| 0.762 | 35 | 0.00033 | 433000 | B3 |
| 24.9 | 2 | 0.00689 | 277000 | B4 |

Target: T1, Soluble heterodimeric CD3 protein …
Test: SPR Biacore 25C antibody-capture, 1-arm
Experimental: Soluble heterodimeric CD3 protein (hCD3-epsilon/hCD3-delta; SEQ ID NOs:1652/1653) with either a human Fc tag (hFcΔAdp/hFc; SEQ ID NOs:1683/1684) or a mouse Fc tag (mFcΔAdp/mFc; SEQ ID NOs:1685/1686) was injected over the antibody captured surface and the binding response was recorded. Heterodimeric CD3 protein was purified using the method described in Davis et al. (US2010/0331527).
as §1

| Kd [nM] | T½ [min] | koff [s⁻¹] | kon [M⁻¹ s⁻¹] | Binder |
| --- | --- | --- | --- | --- |
| 41.7 | 11 | 0.00107 | 25600 | B1 |
| 24 | 38 | 0.000302 | 12600 | B2 |
| 14.9 | 30 | 0.000388 | 26000 | B3 |
| 243 | 2 | 0.00624 | 25700 | B4 |

Target: T2, human PSMA expressed with an N-terminal hexahistidine tag (6h.hPSMA, R&D) (human, UniProt Q04609 44-750)
T2 construct: Bought soluble protein; also called soluble human PSMA; human PSMA protein
Test: SPR Biacore T-200, 37 C, antibody-capture (anti-human Fc), 6h.hPSMA as analyte
Experimental: In this example, anti-PSMA antibodies were assessed for their ability to bind to human PSMA. […] Measurements were conducted on a Biacore™ T-200 instrument (GE Healthcare).
Briefly, a CM5 Biacore™ sensor surface was derivatized via amine coupling with a monoclonal mouse anti-human Fc antibody (GE, # BR-1008-39) or monoclonal goat anti-mouse Fc antibody (GE, # BR-1008-38) to capture purified anti-PSMA antibodies. Binding studies were performed in HBSP++ buffer composed of 0.01M HEPES, 0.15M NaCl, 2 mM Ca²⁺, 2 mM Mg²⁺, 0.05% v/v Surfactant P20, pH7.4. Varying concentrations of human PSMA expressed with an N-terminal hexahistidine tag (6h.hPSMA, R&D) prepared in HBSP++ running buffer (ranging from 50 to 0.78 nM, 4-fold dilutions) were injected over the anti-PSMA antibody captured surface at a flow rate of 30 μL/minute. Antibody-reagent association was monitored for 2 minutes while dissociation in HBSP++ running buffer was monitored for 8 minutes.
as §1, with “by” for “by processing and”, “real-time sensorgrams” for “data”, “2.0c” for “2.0”, “(t½)” for “(t₁₁₂)”, “2/(60*kd).” for “2/(60*kd). NT=not tested; NB=no binding observed.”

T2 sequence (Q04609 other isoform, or with tags, fused parts or gaps limits assumed): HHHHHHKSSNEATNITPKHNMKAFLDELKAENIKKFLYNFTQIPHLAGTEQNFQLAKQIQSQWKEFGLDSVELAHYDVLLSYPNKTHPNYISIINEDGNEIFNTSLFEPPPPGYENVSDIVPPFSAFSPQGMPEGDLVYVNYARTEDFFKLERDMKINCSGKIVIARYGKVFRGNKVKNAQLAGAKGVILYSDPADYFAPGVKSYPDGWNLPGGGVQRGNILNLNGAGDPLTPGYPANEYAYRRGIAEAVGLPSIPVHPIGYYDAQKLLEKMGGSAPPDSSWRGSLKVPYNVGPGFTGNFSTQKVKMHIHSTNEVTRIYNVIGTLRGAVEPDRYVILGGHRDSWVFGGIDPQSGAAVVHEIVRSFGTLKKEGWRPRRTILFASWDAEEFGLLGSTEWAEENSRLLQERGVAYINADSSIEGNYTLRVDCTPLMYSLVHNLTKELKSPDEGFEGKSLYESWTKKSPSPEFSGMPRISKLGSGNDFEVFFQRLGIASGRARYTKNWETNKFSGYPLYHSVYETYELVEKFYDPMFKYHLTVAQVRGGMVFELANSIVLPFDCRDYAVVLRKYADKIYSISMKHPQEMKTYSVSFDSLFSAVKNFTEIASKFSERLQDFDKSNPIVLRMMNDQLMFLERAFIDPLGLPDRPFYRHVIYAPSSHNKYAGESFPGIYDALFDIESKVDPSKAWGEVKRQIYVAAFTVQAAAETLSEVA

| Kd [nM] | koff [s⁻¹] | kon [M⁻¹ s⁻¹] | t1/2 [min] | Binder |
| --- | --- | --- | --- | --- |
| 3.74 | 0.00063 | 168000 | 18.3 | B5 |
| 1.99 | 0.000471 | 237000 | 24.5 | B6 |
| ≤ 0.0563 | ≤ 1e-05 | 178000 | ≥ 1160 | B7 |
| 14 | 0.00246 | 175000 | 4.7 | B8 |
| 39.4 | 0.000801 | 20300 | 14.4 | B9 |
| 0.163 | 4.1e-05 | 251000 | 282 | B10 |
| 0.205 | 9.7e-05 | 473000 | 119 | B11 |
| 75.6 | 0.00974 | 129000 | 1.2 | B12 |
| 1.66 | 0.000734 | 441000 | 15.7 | B13 |
| 0.855 | 0.00028 | 327000 | 41.3 | B14 |
| ≤ 0.0199 | ≤ 1e-05 | 503000 | ≥ 1160 | B15 |
| 1.33 | 0.000608 | 457000 | 19 | B16 |
| 0.227 | 6.06e-05 | 267000 | 191 | B17 |

Target: human CD3 expressed on cells (Jurkat cells; human T-cells of PBMC) (human, UniProt P09693 23-182; P20963 22-164)
Test: cell-based or functional assay

Sequence of human CD3 expressed on cells (Jurkat cells; human T-cells of PBMC) (chain, as listed by the source, chain 1 of 4): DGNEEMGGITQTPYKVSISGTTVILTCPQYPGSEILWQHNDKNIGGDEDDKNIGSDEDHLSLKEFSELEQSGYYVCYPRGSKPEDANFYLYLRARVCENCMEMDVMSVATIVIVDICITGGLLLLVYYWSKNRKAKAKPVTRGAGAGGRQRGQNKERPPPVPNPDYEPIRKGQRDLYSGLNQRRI
Sequence of human CD3 expressed on cells (Jurkat cells; human T-cells of PBMC) (chain, as listed by the source, chain 2 of 4): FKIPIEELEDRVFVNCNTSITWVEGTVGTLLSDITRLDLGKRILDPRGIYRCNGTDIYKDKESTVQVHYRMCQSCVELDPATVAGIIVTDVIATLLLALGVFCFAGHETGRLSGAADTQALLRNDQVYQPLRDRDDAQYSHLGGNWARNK
Sequence of human CD3 expressed on cells (Jurkat cells; human T-cells of PBMC) (P09693 23-182, chain 3 of 4): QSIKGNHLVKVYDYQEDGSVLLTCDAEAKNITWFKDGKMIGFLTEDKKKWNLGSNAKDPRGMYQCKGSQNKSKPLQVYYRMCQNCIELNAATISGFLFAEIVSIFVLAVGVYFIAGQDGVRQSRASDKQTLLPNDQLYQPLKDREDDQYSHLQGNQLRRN
Sequence of human CD3 expressed on cells (Jurkat cells; human T-cells of PBMC) (P20963 22-164, chain 4 of 4): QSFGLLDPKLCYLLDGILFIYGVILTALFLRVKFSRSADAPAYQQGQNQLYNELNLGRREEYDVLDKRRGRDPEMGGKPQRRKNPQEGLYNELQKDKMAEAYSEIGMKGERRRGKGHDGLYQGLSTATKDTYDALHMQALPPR

| Binder | U937 Cytotoxicity Human T-cells [M] |
| --- | --- |
| B18 | 0 |
